Experimental findings from US20100210517A1 (RAPTOR PHARMACEUTICAL, published 2010) are described below.

Numbering of substitutions follows the chain as printed.

Test [1] concerns the target T1, LRP2 CR89 (human, UniProt P98164 1025-1102).
T1 construct: domain: CR89; also called YVWR; L2 CR89; not shown: N-terminal hexahistidine and S-peptide tags of pET30(+)a
The test is described as follows: apparent Kd of the variant for the CR pair used in selection; no unit printed in Table 4, nM per Table 2 and paragraph 292.

In test [2] the target is T1, LRP2 CR89. The test is described as follows: solid-phase assay; OD at the highest ligand concentration as percent of the highest OD of all ligands. The procedure:
(§1) Solid phase binding assays-Purified, refolded CR protein (1 μg) was bound to Nunc Maxisorp™ 96-well plates in TBS pH 8 supplemented with 5 mM CaCl₂ (TBSC) overnight at 4° C. Wells were washed with TBSC and then blocked with TBSC containing 2% bovine serum albumin (BSA). […] Control wells contained no added ligand. As an additional control, to determine whether the absence of calcium affected binding, 10 mM EGTA was included in the incubation medium for some samples. […] Excess primary antibody was removed and wells washed before incubation with the secondary antibody, HRP-conjugated goat anti rabbit IgG (Bio-Rad). After washing, TMB substrate solutions (Bio-Rad) were added to detect HRP. Color development was stopped with 1N HCl. Absorption at 450 nm was measured with a microplate spectrophotometer (Molecular Devices). Data were plotted and Kd values derived by non-linear regression with the assumption of single-site binding (GraphPad Prism).

For test [3], the target named is T2, LRP1 CR3-5 (human).
T2 construct: range 852-973; also called L1 CR3-5
T2 sequence (Q07954 852-973): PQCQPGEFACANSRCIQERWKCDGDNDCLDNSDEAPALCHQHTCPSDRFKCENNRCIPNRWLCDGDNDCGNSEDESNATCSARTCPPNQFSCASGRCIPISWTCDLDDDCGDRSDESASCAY
Described as above. The procedure: as §1

The target of test [4] is T3, LRP2 CR89 V1047D R1088D (human, UniProt P98164 1022-1105).
T3 construct: also called YDWD
T3 sequence: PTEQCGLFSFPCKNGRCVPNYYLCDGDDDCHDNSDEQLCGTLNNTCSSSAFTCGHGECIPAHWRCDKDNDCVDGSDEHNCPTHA
The test is described as follows: solid-phase assay on coated CR protein, anti-RAP detection, A450. The procedure: as §1
(§2) To test this idea, mutant LRP2 CR89 were prepared in which the native, non-canonical residues at these positions were sequentially substituted with the non-native, canonical residues. As defined above, the A, C, A′, C′ string for LRP2 CR89 is YVWR. Mutants included LRP2 CR89 Y1042W (WVWR), LRP2 CR89 V1047D (YDWR), LRP2 CR89 R1088D (YVWD), LRP2 CR89 V1047D R1088D (YDWD), LRP2 CR89 Y1042W V1047D R1088D (WDWD), LRP2 CR89 Y1042W V1047D (WDWR), LRP2 CR89 Y1042W R1088D (WVWD).

The target of test [5] is T4, LRP2 CR89 Y1042W R1088D (human, UniProt P98164 1022-1105).
T4 construct: also called WVWD
T4 chain: T3 sequence with Y22W, D27V
The test is described as above. The procedure:
as §1, §2

Test [6] has as its target T5, LRP2 CR89 Y1042W V1047D R1088D (human, UniProt P98164 1022-1105).
T5 construct: also called WDWD
T5 chain: T3 sequence with Y22W
The description is as above. The procedure: as §1, §2

The target in test [7] is T6, LRP2 CR89 Y1042W V1047D (human, UniProt P98164 1022-1105).
T6 construct: also called WDWR
T6 chain: T3 sequence with Y22W, D68R
Described as above. The procedure:
as §1, §2

In test [8] the target is T7, LRP2 CR89 V1047D (human, UniProt P98164 1022-1105).
T7 construct: also called YDWR
T7 sequence: T3 sequence with D68R
Described as above. The procedure:
as §1, §2

Test [9] deals with T8, LRP2 CR2728 (human, UniProt P98164 3552-3631).
T8 construct: domain: CR2728; Its cloning is not described in the methods; not shown: N-terminal hexahistidine and S-peptide tags of pET30(+)a
T8 sequence (looked up): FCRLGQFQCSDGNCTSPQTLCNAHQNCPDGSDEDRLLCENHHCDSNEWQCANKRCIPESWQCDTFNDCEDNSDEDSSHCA
The test is described as follows: solid-phase assay on coated CR protein, each ligand at 80 nM, blank-corrected absorbance. The procedure:
(§3) Samples were tested twice, in duplicate, and values combined. Means and standard deviations were then calculated. Blank values obtained from wells incubated in the absence of ligand were used to correct absorbance data.
as §1

Test [10] concerns the target T9, LRP2 CR3031 (human, UniProt P98164 3677-3755).
T9 construct: domain: CR3031; Its cloning is not described in the methods; not shown: N-terminal hexahistidine and S-peptide tags of pET30(+)a
The description is as above. The procedure: as §3, §1

Test [11] addresses T10, LRP2 CR3536 (human, UniProt P98164 3882-3963).
T10 construct: domain: CR3536; not shown: N-terminal hexahistidine and S-peptide tags of pET30(+)a
The test is described as above. On the procedure: as §3, §1

For test [12], the target named is T11, LRP2 CR89 R1088D (human, UniProt P98164 1022-1105).
T11 construct: also called YVWD
In words: solid-phase binding assay, CR protein coated on plate, anti-RAP detection.

In test [13] the target is T1, LRP2 CR89. The test is described as follows: solid-phase assay on coated CR protein, single-site non-linear fit. The procedure:
as §1

Test [14] deals with T11, LRP2 CR89 R1088D. The test is described as above. The procedure: as §1

T1 sequence (P98164 1025-1102): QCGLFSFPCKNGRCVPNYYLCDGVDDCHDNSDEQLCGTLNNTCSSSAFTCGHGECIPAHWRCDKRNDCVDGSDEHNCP
T9 sequence (P98164 3677-3755): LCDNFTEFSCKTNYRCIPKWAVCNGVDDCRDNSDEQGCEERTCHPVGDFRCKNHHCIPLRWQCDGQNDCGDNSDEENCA
T10 sequence (P98164 3882-3963): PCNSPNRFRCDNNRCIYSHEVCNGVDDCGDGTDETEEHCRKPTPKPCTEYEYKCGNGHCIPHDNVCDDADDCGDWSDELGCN

B1: MegaRAP1 d3 (ligand)
chain: LDRLRRVSHQGYTTEAKFEEPRVIDLWDLAQSANLTDKELEAFREELKYFKAKIEAHNHYQKQLEIAHEELRHAESVGDGERVSRSREKHALLEGRTKELGYTVKKHLQDLSGRISRAR
notes: V175L lies outside the d3 construct; also called RAPv2A d3; RAP v2 d3; not shown: N-terminal hexahistidine and S-peptide tags of pET30(+)a
Turning to B1, the Kd worked out at 38 nM in test [1], 33 nM in test [13] and 78 nM in test [14]. Further, the “% max” value was 88% in test [2] and 4% in test [3]. Also, the binding result in test [4] is “no binding (tested: 100 nM)”; in [5], “no binding (tested: 100 nM)”; in test [6], “no binding (tested: 100 nM)”; in test [7], “no binding (tested: 100 nM)”; in [8] it was “no binding (tested: 100 nM)”; in [9], “no binding (tested: 80 nM)”. In addition, the binding result in test [10] and in test [11] was “no binding (tested: 80 nM)” in each case. Also, the “fold loss of affinity relative to LRP2 CR89” value in [12] was roughly 2 fold.
